B1: caspase-12L: long form of mouse caspase-12, 419 amino acid residues (SEQ ID NO:2); expressed as lacZ fusion (protein)
chain: MAARRTHERDPIYKIKGLAKDMLDGVFDDLVEKNVLNGDELLKIGESASFILNKAENLVENFLEKTDMAGKIFAGHIANSQEQLSLQFSNDEDDGPQKICTPSSPSESKRKVEDDEMEVNAGLAHESHLMLTAPHGLQSSEVQDTLKLCPRDQFCKIKTERAKEIYPVMEKEGRTRLALIICNKKFDYLFDRDNADTDILNMQELLENLGYSVVLKENLTAQEMETELMQFAGRPEHQSSDSTFLVFMSHGILEGICGVKHRNKKPDVLHDDTIFKIFNNSNCRSLRNKPKILIMQACRGRYNGTIWVSTNKGIATADTDEERVLSCKWNNSITKAHVETDFIAFKSSTPHNISWKVGKTGSLFISKLIDCFKKYCWCYHLEEIFRKVQHSFEVPGELTQMPTIERVSMTRYFYLFPGN
modifications: lacZ fusion
B2: caspase-12Δ2: truncated His-tagged caspase-12, amino acid residues 145-419 of SEQ ID NO:2 (protein)
chain: TLKLCPRDQFCKIKTERAKEIYPVMEKEGRTRLALIICNKKFDYLFDRDNADTDILNMQELLENLGYSVVLKENLTAQEMETELMQFAGRPEHQSSDSTFLVFMSHGILEGICGVKHRNKKPDVLHDDTIFKIFNNSNCRSLRNKPKILIMQACRGRYNGTIWVSTNKGIATADTDEERVLSCKWNNSITKAHVETDFIAFKSSTPHNISWKVGKTGSLFISKLIDCFKKYCWCYHLEEIFRKVQHSFEVPGELTQMPTIERVSMTRYFYLFPGN
modifications: His tag

Key:
[1] = Protease activity of full-length recombinant caspase-12 from E. coli; assay type: biochemical; settings: expressed and purified from E. coli
[2] = system: rat embryonic fibroblast cells; test: Cell death induced by transient overexpression of lacZ fusion constructs, X-gal staining; assay type: cell-based; settings: primary rat embryonic fibroblasts, FIG. 4C
Source text: (§1) FIGS. 4A-4C. Cell death induced by overexpression of caspase-12. […] The round cells expressing the casp-12L-lacZ fusion proteins show condensed and fragmented nuclei. […] The data shown are the percentage of round blue cells among total number of blue cells counted. In each transfection, over 200 blue cells were randomly chosen and counted. The data of Rat-1 cells collected from at least three independent experiments. The constructs used were: casp-12L-lacZ, casp-12S-lacZ, casp-12Δ-lacZ, ICE-lacZ, lacZ. Rat embryonic fibroblast cells (REF) were also transfected with either casp-12L-lacZ or lacZ.
Rat-1, rat embryonic fibroblast cells, NG108-15, HeLa and COS-1 were maintained in culture at 37° C. with 5% CO2 in Dulbecco's modified Eagle's medium containing 10% (v/v) fetal bovine serum (BioWhittaker) and 50 units/ml penicillin and 50 μg/ml streptomycin (Sigma). The day before transfection, cells were seeded at a density of 1.3×10^4 cells/cm^2. […] The expression of chimeric genes in cells was detected by staining of cells with 5-bromo-4-chloro-3-indolyl β-D-galactoside (X-gal) as previously described (Miura, M., et al., Cell 75:653-660 (1993); Kumar, S., et al., Genes and Development 8:1613-1626 (1994); Wang, L., et al., Cell 78:739-750 (1994)). […]

Rat-1/bcl-2 = test: Effect of cell death suppressor bcl-2 on caspase-12 killing activity; assay type: cell-based; settings: casp-12L-lacZ in Rat-1/bcl-2 stable transfectant
Experimental: FIGS. 5A-5B. Effect of cell death suppressors on the killing activity of caspase-12. […] Cell death was assayed as described in FIG. 4C. […] The data from transfection of the parental cell line, Rat-1 (FIG. 4C), are included in the figures for comparison. The lacZ construct was also used for transfection as a control.
To determine if expression of bcl-2 and crmA can inhibit apoptosis induced by casp-12 overexpression, casp-12L-lacZ fusion construct was transfected into stable cell lines of Rat-1 that overexpresses either bcl-2 or crmA (Miura, M., et al., Cell 75:653-660 (1993)). Cell death was assayed as described above (Example 3). […] The magnitude of the bcl-2 suppression against toxicity of casp-12 overexpression was about 10% (60% for Rat-1, 50% for Rat-1/bcl-2) which is much smaller than that observed for ICE and casp-2 (FIG. 5A; Wang, L., et al., Cell 78:739-750 (1994)).

COS-1 cells = test: Cell type specificity of cell killing, lacZ fusion transfection; assay type: cell-based, monkey; settings: COS-1, FIG. 6
Experimental: (§2) FIG. 6. The cell type specificity of caspase-12-induced cell killing activity. NG108-15, HeLa and COS-1 cells were transfected with casp-12L-lacZ, casp-12S-LacZ, lacZ or ICE-lacZ. Staining of transfectants were done and the data are presented as in FIG. 4C.
(§3) Rat-1, rat embryonic fibroblast cells, NG108-15, HeLa and COS-1 were maintained in culture at 37° C. with 5% CO2 in Dulbecco's modified Eagle's medium containing 10% (v/v) fetal bovine serum (BioWhittaker) and 50 units/ml penicillin and 50 μg/ml streptomycin (Sigma). The day before transfection, cells were seeded at a density of 1.3×10^4 cells/cm^2. Expression constructs were transferred to cells with either calcium phosphate or lipofectamine (GIBCO BRL) as previously described (Miura, M., et al., Cell 75:653-660 (1993); Kumar, S., et al., Genes and Development 8:1613-1626 (1994); Wang, L., et al., Cell 78:739-750 (1994)). The expression of chimeric genes in cells was detected by staining of cells with 5-bromo-4-chloro-3-indolyl β-D-galactoside (X-gal) as previously described (Miura, M., et al., Cell 75:653-660 (1993); Kumar, S., et al., Genes and Development 8:1613-1626 (1994); Wang, L., et al., Cell 78:739-750 (1994)). […]

Rat-1 cells = test: Cell death induced by transient overexpression of lacZ fusion constructs, X-gal staining; assay type: cell-based; settings: lacZ fusion construct, 24 hr after transfection
Source text: as §1
To examine if expression of caspase-12 induces apoptosis, a transient expression system was used to overexpress caspase-12 in mammalian cells. […] Transfected cells are easily detected by staining with X-gal because of the β-galactosidase activity of lacZ. Expression constructs of casp-12L and casp-12S fused with lacZ gene in pcDNA3 vector, which contains the cytomegalovirus (CMV) promoter, were generated. These expression constructs were introduced into Rat-1 cells by transfection, and the expression of the genes were examined 24 hr after transfection using X-gal reaction.
Rat-1, rat embryonic fibroblast cells, NG108-15, HeLa and COS-1 were maintained in culture at 37° C. with 5% CO2 in Dulbecco's modified Eagle's medium containing 10% (v/v) fetal bovine serum (BioWhittaker) and 50 units/ml penicillin and 50 μg/ml streptomycin (Sigma). The day before transfection, cells were seeded at a density of 1.3×10^4 cells/cm^2. Expression constructs were transferred to cells with either calcium phosphate or lipofectamine (GIBCO BRL) as previously described (Miura, M., et al., Cell 75:653-660 (1993); Kumar, S., et al., Genes and Development 8:1613-1626 (1994); Wang, L., et al., Cell 78:739-750 (1994)). The expression of chimeric genes in cells was detected by staining of cells with 5-bromo-4-chloro-3-indolyl β-D-galactoside (X-gal) as previously described (Miura, M., et al., Cell 75:653-660 (1993); Kumar, S., et al., Genes and Development 8:1613-1626 (1994); Wang, L., et al., Cell 78:739-750 (1994)). Immunostaining of transfected cells was done as previously described using mouse monoclonal anti-lacZ antibody (Miura, M., et al., Cell 75:653-660 (1993); Kumar, S., et al., Genes and Development 8:1613-1626 (1994); Wang, L., et al., Cell 78:739-750 (1994)).

HeLa = test: Cell type specificity of cell killing, lacZ fusion transfection; assay type: cell-based; settings: FIG. 6
Experimental: as §2, §3

NG108-15 = test: as above; assay type: cell-based; settings: NG108-15, FIG. 6
Experimental: as §2, §3

pro-caspase-12 = test: In vitro cleavage of [35S]-labeled protein by partially purified caspase-12Δ2; assay type: biochemical, mouse; settings: 1 hr at 37° C., 0.1 μg enzyme
Source text: (§4) FIGS. 8A-8C Protease activity of caspase-12Δ2. […] Proteins were run on 15% gel and detected by Coomassie brilliant blue staining. Arrowheads indicate polypeptides derived from caspase-12 proteins. FIG. 8B is a diagram of processing sites on caspase-12Δ and caspase-12Δ2. […] Reaction was stopped by boiling with the addition of sample buffer for SDS-polyacrylamide gel electrophoresis. The molecular sizes in kilodaltons are indicated at the left.
(§5) ICE, casp-2 and casp-3 were cloned into a pET-15b vector (Novagen) and their expression was induced in the presence of 0.2-0.3 mM IPTG (Wang, S., et a., J. Biol. Chem. 271:20580-20587 (1996); Cryns, V. L., et al., J. Biol. Chem. 271:31277-31282 (1996)). Bacterial lysates containing the ICE-like proteases were prepared as described (Wang, S., et al., J. Biol. Chem. 271:20580-20587 (1996); Cryns, V. L., et al., J. Biol. Chem. 271:31277-31282 (1996)). [^35S]-labeled proteins were prepared by in vitro transcription and translation using a TNT coupled reticulocyte lysate system (Promega) and [^35S]methionine (Amersham). Labeled proteins were incubated at 37° C. with purified caspase-12Δ2 or at 30° C. with E. coli lysates containing the caspase family members. […] Cleavage products were analyzed by either 10- or 15% SDS-polyacrylamide gel electrophoresis. […]

[3] = system: pro-ICE, pro-caspase-2 and pro-caspase-3; test: In vitro cleavage of [35S]-labeled proteins by partially purified caspase-12Δ2; assay type: biochemical; settings: 1 hr or 3 hr incubation
Source text: as §4, §5

[4] = system: pro-IL-1β and poly(ADP-ribose) polymerase; test: Cleavage of preferred ICE and caspase-3 substrates by purified caspase-12Δ2; assay type: biochemical
Experimental: as §5, with “members. The reaction mixture contained 25 mM Hepes (pH 7.5) with 5 mM EDTA, 5 mM dithiothreitol, 10% sucrose, 10 μg/ml leupeptin and 250 μM phenylmethylsulfonyl fluoride. Amount of proteins used for cleavage reaction were: 0.1 μg for partially purified caspase-12Δ2, 25-70 μg for E. coli lysate.” for “members.”

Molecule	processing and protease activity in vitro [1]	transfected cells round and small [2]	percentage of cell death (Rat-1/bcl-2) [%]	apoptosis induced by casp-12L expression (COS-1 cells)	percentage of cell death (round blue cells among total blue cells) (Rat-1 cells)	percentage of cell death (round blue cells among total blue cells) (Rat-1 cells; listed as casp-12L-lacZ) [%]	apoptosis induced by casp-12L expression (HeLa)	apoptosis induced by casp-12L expression (NG108-15)	processing of pro-caspase-12 (48 kDa) into fragments (pro-caspase-12)	cleavage of pro-ICE, pro-caspase-2 and pro-caspase-3 [3]	cleavage of pro-IL-1β and poly(ADP-ribose) polymerase [4]
B1	without any processing and protease activity	about 60%	50	resistant to apoptosis	about 60%	60	resistant to apoptosis	resistant to apoptosis			
B2									can efficiently process	only faint bands of cleavage products	little activity
